Earlier results on one substance are cited in paper PMC11558822, “Myc 9aaTAD activation domain binds to mediator of transcription with superior high affinity” (Molecular Medicine, 2024).

This data set addresses CBP KIX (Homo sapiens) (UniProt Q92793). The data set can be described thus: ITC. (ITC needs no label: the signal is the heat of the interaction.)

Sequence of CBP KIX (Homo sapiens) (Q92793 584-669): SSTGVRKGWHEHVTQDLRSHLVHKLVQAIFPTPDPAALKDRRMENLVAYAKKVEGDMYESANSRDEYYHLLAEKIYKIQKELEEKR

In general, Kd refers to the equilibrium constant for the complex coming apart. Turning to MLL 9aaTAD (from UniProt Q03164), the Kd is 1.4 µM.
